Assay results: paper PMC4831045

Assays:
[1] = target: cNTnC N-terminal domain (Homo sapiens) (UniProt P63316); settings: cited from earlier work
[2] = target: cTnC(C35S)-i9: cardiac troponin C (C35S) with the levosimendan analog i9 covalently bound to C84 (UniProt P63316); assay: NMR titration; 19F NMR; 530 μM Ca2+-saturated cTnC(C35S)-i9 in NMR buffer (100 mM KCl, 10 mM imidazole, 2 mM CaCl2, pH 6.9), 30 °C, titrated with switch-cTnI (144–163) 0 to 1,540 μM; area under the F4′ signal of i9 fit with one-to-one stoichiometry (xcrvfit)

Chain of switch-cTnI 144-163 (P19429 144-163): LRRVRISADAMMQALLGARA

Kd [2] | Substance | Kd [1]
– | switch-cTnI 144-163 (from UniProt P19429) | 26 µM
74 µM | switch-cTnI (residues 144–163) (peptide) | –
